In the supplement of paper PMC9170038:

Test system: K4 kissing-loop RNA reporter
Experiment: apparent KD of K4 kissing-loop reporter; higher = weaker reporter binding
Conditions: Eterna round: R107
Procedure: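 RNA-MaP round R107: designed RNA switches with theophylline, tryptophan, arginine or FMN aptamers are transcribed on-chip within common flanks. They are titrated with a labelled K4 kissing-loop RNA reporter in RNA-MaP buffer (100 mM Tris pH 7.5, 80 mM KCl, 4 mM MgCl2), without ligand or with the indicated ligand. Median apparent KD per design.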

[1] = input ligand: theophylline 20 uM
[2] = input ligand: tryptophan 2.4 mM
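Further: bound reporter read as fluorescence of individual clusters on recovered sequencing chips by microscopy, with normalized cluster intensities fitted with a binding model.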

Row | Sequence | apparent KD of K4 kissing-loop reporter (input ligand: FMN 200 uM) [µM] | apparent KD of K4 kissing-loop reporter (input ligand: arginine 13.2 mM) [µM] | apparent KD of K4 kissing-loop reporter (input ligand: none) [µM] | apparent KD of K4 kissing-loop reporter [1] [µM] | apparent KD of K4 kissing-loop reporter [2] [µM]
1 | GGAUAGGAUAGAGGAUAUGGGUUAGGCAAGAAUAACUUGUCUUGUAAAUCCAUGAGGAGUGAUGUUCCAGAAGGCUGUCCUAUCG [MatMod 5 - Jieux - Exclusion - FMN B] | 0.301 | 0.113 | 0.112 | 0.114 | 0.0936
2 | GGAUCCACCAGUGAUGUUGGAGAAAACUCAAAGGAUAUGACGAAAGUCAGAAGGUUGUAGACUGGACAAAGUCCGGUCGGAUCCA [FmnA 19 A30+U56] | 0.45 | 0.504 | 0.65 | 0.613 | 0.475
3 | GGAUCCACCAGUGAUGUUGGAGAAAACUCUAAGGAUAUGACGAAAGUCAGAAGGUAGUAGACUGGACAAAGUCCGGUCGGAUCCA [FmnA 23 U30+A56] | 0.583 | 0.376 | 1.19 | 0.661 | 0.484
4 | GGAUCCACCAGUGAUGUUGGAGAAAACUUCAAGGAUAUGACGAAAGUCAGAAGGUGGUAGACUGGUCAAAGUCCGGUCGGAUCCA [FmnA10 U29+U66] | 0.658 | 0.12 | 0.459 | 0.147 | 0.194
5 | GGAUCCGCCAGUGAUGUUGGAGAAAACUCCAAGGAUAUGACGAAAGUCAGAAGGUGGUAGACUGGACAAAGUCCGGUCGGAUCCA [FmnA 26 #SwitchBubble #K4Early] | 0.761 | 0.331 | 0.932 | 0.157 | 0.442
6 | GGAUCGCAUGGCGAAAAGCCAUGCGAUCCACGAGGACCGGUACGGCCGCCACUCGCCGGAGUGAUGUUCCGCUACAGAUCUUAAA | 0.187 | 0.121 | 0.256 | 0.144 | 0.301
7 | GGAUUCACCAGUGAUGUUGGAGAAAACUCGAAGGAUAUGACGAAAGUCAGAAGGUCGUAGACUGGACAAAGUCCGGUCGGAUCCA [KL-SSFMN-A22] | 0.419 | 0.25 | 0.299 | 0.359 | 0.279
8 | GGAUUGCCAGUGAUGUUGGCAUAAACUGAAGGAGCGCGUGAAAACGCAGGUAGGUCGCAGAACCUUGCCAACUAUAUUAUUUACC [Ex Arginine A K4 22] | 0.111 | 0.137 | 0.123 | 0.146 | 0.102
9 | GGCACUUUUGCUUGGAACCGUCAAGCUCUUUAGGAUAUCUGGAAACAGAGAAGGAAAGACCUACAGAGUGAUGUUCUGCGUGCCU | 0.332 | 0.133 | 0.273 | 0.183 | 0.144
10 | GGCAGAGUGAUGUUCGCCCUUUACCUUGAUACCAGUUCAUCUCAAAACCCUUGGCAGCAAGUGUGUAAGAGCGGUAUUGGUCAAU [theeternabot_exclusion_KL_Theo_A_1] | 0.356 | 0.306 | 0.388 | 0.359 | 0.339
11 | GGCAGUGAUGUUGCCAGUGGCAGAUUGGAAGGAGCGUGGUGAGACACAGGUAGGUCGCUAAUUGAAGUUGCUGUCACUAGAAUGC [whbob_Ex_Arginine_A_2t132] | 0.214 | 0.28 | 0.293 | 0.335 | 0.231
12 | GGCAUGCGUAGAGUGAUGUUCUAAGAUGAUACCAGUGCGGAAACGCACCCUUGGCAGCAUCUGACUGGCAUGCCGGCGAAAGCCU | 0.871 | 0.811 | 1.24 | 0.77 | 0.982
13 | GGCCGCAAGGCGGGCCGGCCCACUCCGGAAGGAGCGCCCGCAAGGGCAGGUAGGUCGCCGGAGUGAUGUUCCGGUGGCCGGCCCG [#2 Exclusion - Arginine A Attempt #2 (Inspired by Omei)] | 0.141 | 0.136 | 0.133 | 0.0938 | 0.13
14 | GGCCGGAAGGCGAGCGCUCCCACUCCGGAAGGAGCGCCCGGAAGGGCAGGUAGGUCGCCGGAGUGAUGUUCCGGUGGAGGGCUCG [#2 Exclusion - Arginine A Attempt #19 (Inspired by Omei)] | 0.141 | 0.12 | 0.0804 | 0.271 | 0.0702
15 | GGCCGGUUGAAAGGCCGGCCAGAAACCGAAGGAGCGCGAAGAAACGCAGGUAGGUCGCGGAAAACAUGACCAGUGAUGUUGGUCG | 0.152 | 0.173 | 0.154 | 0.152 | 0.144
16 | GGCGAUGAGUGAUGUUCAAAGAAUAAUGAUACCAGCUGAUGUCGAAGCCCUUGGCAGCAUAGAUACACCAAGUGAUGGUAAUGCC [Default title] | 0.193 | 0.209 | 0.237 | 0.235 | 0.143
17 | GGGAACUCUUACGAUACCAGCCGGAGUGAUGUUCCGUGCUUGGACGUAGUAACCCGCACCGGCCCUUGGCAGCGUGGAUCUUGUG [Esgeonin] | 0.0806 | 0.0655 | 0.0781 | 0.0732 | 0.0835
18 | GGGAAGAAGGCGGCCGCCACUGCAGAAGAGACAGAGAGGGUAGAAGAGGAGUGAUGUUCCAAGAACAGGACCGGGCCAAGAAGGG [whbob_SS_Tryp_B_t30] | 0.226 | 0.172 | 0.226 | 0.237 | 0.137
19 | GGGAGCAAAGCUCCCGGAUGCUAUUACCAGGAGGAUAUCUGGAAACAGAGAAGGCCUAAGCCAGUGAUGUUGGUUUCGAGCAUCC | 0.184 | 0.257 | 0.278 | 0.305 | 0.274
20 | GGGAGGAGUGGUGUUGAUUAAGAAGCGGAAGGAGCGCCGAAGAAGGCAGGUAGGUCGCCGAAAUAUAGUGAUGUUAUAUAAAGGG [ExArg.C] | 0.34 | 0.198 | 0.281 | 0.262 | 0.208
21 | GGGAGUAGUGCGGCCGCCACUGAGAAAGAAGAAGAAUAUAGUGAUGUUAUAUAGGAAUAAAAGAAUAGGACCGGGCAUUAGAUUU [SSTRyptB.S] | 0.165 | 0.245 | 0.269 | 0.215 | 0.159
22 | GGGAGUAGUGCGGCCGCCACUGUGAAAGAAGAAGAAUAUAGUGAUGUUAUAUAGGAAUUAAAGAAUAGGACCGGGCAUUAGAUUU [SSTRyptB.Q] | 0.248 | 0.198 | 0.26 | 0.311 | 0.184

Row | Sequence | apparent KD of K4 kissing-loop reporter (input ligand: FMN 200 uM) [µM] | apparent KD of K4 kissing-loop reporter (input ligand: arginine 13.2 mM) [µM] | apparent KD of K4 kissing-loop reporter (input ligand: none) [µM] | apparent KD of K4 kissing-loop reporter [1] [µM] | apparent KD of K4 kissing-loop reporter [2] [µM]
23 | GGGCAUCUGGCUGAUACCAGUGAUAAAGGGUAAGAGACAGGGAGUGAUGUUCCCUUUAGCCACCCUUGGCAGCAGUUUAAGUUUG [Exclusion Theophylline B GF 17] | 0.0835 | 0.0833 | 0.0947 | 0.0854 | 0.0764
24 | GGGCAUGUUAAAGGAUAUAGCAGGUGAUACAAGAAAGUGAGUGAUGUUUAUGUAGAUGAUGAUAUGUUAGAAGGUUAACAAAACC [abcdefghijklm] | 0.597 | 0.475 | 0.62 | 0.529 | 0.374
25 | GGGCCGCGCGCGGCCGCCACUCAGUGAUGUUGGGUGAGCUUUGCUGUGCGUGCUGUUUCGUGACGGAGGACCGGGCGCGCGGCCU [BDazzled 2] | 0.129 | 0.0936 | 0.121 | 0.113 | 0.215
26 | GGGCGCGGCGCGGCCGCCACUGGGCCUGGGCGCUCGCUGAGUGAUGUUCGUCGGCGGCUGGGUCGUAGGACCGGGUGCCGGCUGG [BDazzled - #4 SS Tryptophan B] | 0.735 | 0.533 | 1.32 | 0.627 | 0.269
27 | GGGCGUGGCGCGGCCGCCACUGGGCCUGGGCGCUCGCUGAGUGAUGUUCGUCGGCGGUUGGGUCGUAGGACCGGGUGCUGGUUGG [BDazzled - #8 SS Tryptophan B] | 0.402 | 0.199 | 0.516 | 0.281 | 0.253
28 | GGGCGUUACGGAGUGAUGUUCCGUAGCGAUACCAGCCAUUGCGAUGGCCCUUGGCAGCGCUAUAAGCAUAGAAUUGUAGCGCUUA [Theo A Ex t7b] | 0.109 | 0.0941 | 0.108 | 0.102 | 0.105
29 | GGGCUAUAGUGAUGUUAUUGUCUAAACGAUACCAGUUCACCCGUGAACCCUUGGCAGCGUGGUGUAACCUAUCCUCGUUGCACUG [theeternabot_sameState_KL_Theo_A_28] | 0.64 | 0.595 | 0.744 | 0.523 | 0.554
30 | GGGUGGCAGGCGGCCGCCACUCUGAGGGUCCACAGUGAUGUUGUGGGCGCGUAAGCGUCUUCAUAGAGGACCGGGUUUGUUGUUC [Same State Tryptophan B GF 24] | 0.422 | 0.308 | 0.454 | 0.403 | 0.338
31 | GGGUUUGCCGGAAGGAGCGCACUAUGGAGUGAUGUUCCAUGACCGCACAGCUUGCGGUCAGUGCAGGUAGGUCGCCGGUAACGUU [Enatbeve] | 0.237 | 0.181 | 0.18 | 0.201 | 0.194
32 | GGUACAGCGGAAGGAUAUCUGUCAUGGACGAUCGUAGCUUGAGCUCCCUGAGUGAUGUUUAGGAUGAGAGAAGGUCCACUCGUAU [theeternabot_exclusion_KL_FMN_B_2] | 0.673 | 0.358 | 0.591 | 0.626 | 0.45
33 | GGUAGCAUGGCGGCCGCCACUAAUACUUCGUAGCCUGUAGCCGGCUUCGUAGAGUGAUGUUCUAUUAGGACCGGGCCAUGCUACC | 0.361 | 0.52 | 0.45 | 0.526 | 0.493
34 | GGUAGCAUGGCGGCCGCCACUAGAUCAGUGAUGUUGAUCCCGCCGUCUUACGGCGAGUCAGAGGCUAGGACCGGGCCAUGCUACC | 0.601 | 0.318 | 0.49 | 0.59 | 0.963
35 | GGUAGCAUGGCGGCCGCCACUAUAAAGAAUCCAAAGGAUUCUAGGUAGUGAUGUUACCAUAGCUAUAGGACCGGGCCAUGCUACC | 0.156 | 0.12 | 0.174 | 0.121 | 0.0565
36 | GGUAGCAUGGCGGCCGCCACUGUUCGUGUUGCUAGCAGAUUCCAGUGAUGUUGGAAGCCUAGGUACAGGACCGGGCCAUGCUACC | 0.105 | 0.115 | 0.131 | 0.102 | 0.103
37 | GGUAGCAUGGCGGCCGCCACUUCAAUUGGAGUGAUGUUCCAAGGCAUCGCGAAAGCGAUGCCAGGAAGGACCGGGCCAUGCUACC | 0.271 | 0.224 | 0.306 | 0.222 | 0.112
38 | GGUAGCAUGGCGGCCGCCACUUCGAAUAAGUGAUGUUUAUUUGACUGAGCACCCUAUGCCAUGUGAAGGACCGGGCCAUGCUACC | 0.147 | 0.138 | 0.157 | 0.208 | 0.2
39 | GGUAUCCAGUACCAUUGCGUUAAAACAGAAGGAGCGAGUAUGGACUCAGGUAGGUCGCUGUUUAUAGUCGAGUGAUGUUCGAAUC [Same State Arginine A GF 15] | 0.237 | 0.28 | 0.281 | 0.316 | 0.222
40 | GGUCCGGGCUCGGCCGCCACUCCCUCGUACCGCAAGGUAUGAUACCGAGUGAUGUUCGGUUGGAGGAGGACCGGGAGCCCGGACC [#2 Exclusion - Tryptophan B Attempt #9 (HarryS)] | 0.112 | 0.11 | 0.132 | 0.124 | 0.1
41 | GGUCGGAGUGAUGUUCCGAGCUUCAGUCAUCGAGGACCGGUACGGCCGCCACUCGUCUACUAUGACGUAUCACCCUCCACGUGUU [theeternabot_sameState_KL_Trp_A_33] | 0.15 | 0.142 | 0.146 | 0.145 | 0.125
42 | GGUGACAACCAGGAGUGAUGUAUAGAAUAGCGAGGACCGGUACGGCCGCCACUCGUGAAGAGAAAGGAGUGAUGUUCCGUAAUGG [Kazoo C3] | 0.129 | 0.126 | 0.165 | 0.0742 | 0.0628
43 | GGUGACGGCCAGGAGUGAUGUAUAGAAUAGCGAGGACCGGUACGGCCGCCACUCGUGAAGAAAAGGGAGUGAUGUUCCGUAAUGU [Kazoo] | 0.0878 | 0.122 | 0.0753 | 0.126 | 0.0495
44 | GGUGCGGGCUCGGCCGCCACUCCCUCCUGCCGUAAGGUGGGAUACCGAGUGAUGUUCGGUUGGAGGAGGACCGGGAGCCCGUGCC [#2 Exclusion - Tryptophan B Attempt #16 (HarryS)] | 0.131 | 0.102 | 0.114 | 0.11 | 0.125
